Laboratory results reported in US20040091492A1.

Tests used:
[1] = target: HLA-A3 on Hmy2.C1R-A3 transfectant cells with the pn2a.A3 peptide (human)
[2] = target: HLA-A2 on Hmy2.C1R-A2 transfectant cells with the HIV gag 77-85 peptide (human), A*02:0
[3] = target: HLA-A3 on Hmy2.C1R-A3 transfectant cells with the pn2a.A3 peptide (human); remark: listed apart in the source
[4] = target: HLA-A2 on Hmy2.C1R-A2 target cells pulsed with HTLV-1 TAX 11-19 peptide (human), A*02:0; assay: cell-based or functional assay
[5] = target: HLA-A1 on Hmy2.C1R-A1 transfectant cells with the OD 309 peptide (ornithine decarboxylase 309-317) (human); assay: competition with 2.5 µM myc-hβ2m on Hmy2.C1R-A1 cells with OD 309 peptide, 9E10 flow cytometry
[6] = target: HLA-A1 on Hmy2.C1R-A1 transfectant cells with the OD 309 peptide (ornithine decarboxylase 309-317) (human); assay: HLA stabilization assay, acid-stripped Hmy2.C1R-A1 cells with OD 309 peptide and BB7.5 mAb, flow cytometry

“hβ2m S55V (human β2-microglobulin with valine at position 55 of the mature protein) (from UniProt P61769 21-119)” was tested, and the fold better stabilization than wild-type hβ2m [1] was 3 fold, the fold better inhibition of myc-hβ2m binding than wild-type hβ2m [2] was 2.5 fold and the fold better inhibition of myc-hβ2m binding than wild-type hβ2m [3] was 2.5 fold. It also gave a fold more effective than wild-type hβ2m at enhancing target cell lysis (CTL lysis assay) [4] of 4 fold, a fold better inhibition of myc-hβ2m binding than wild-type hβ2m [5] of 2.5 fold and a fold better stabilization than wild-type hβ2m [6] of 2 fold.
